The chains are these.
B1: ATGL (PNPLA2, patatin-like phospholipase domain-containing protein 2), human, full length / G0S2 (G0/G1 switch protein 2), human (parent)
chain 1: MFPREKTWNISFAGCGFLGVYYVGVASCLREHAPFLVANATHIYGASAGALTATALVTGVCLGEAGAKFIEVSKEARKRFLGPLHPSFNLVKIIRSFLLKVLPADSHEHASGRLGISLTRVSDGENVIISHFNSKDELIQANVCSGFIPVYCGLIPPSLQGVRYVDGGISDNLPLYELKNTITVSPFSGESDICPQDSSTNIHELRVTNTSIQFNLRNLYRLSKALFPPEPLVLREMCKQGYRDGLRFLQRNGLLNRPNPLLALPPARPHGPEDKDQAVESAQAEDYSQLPGEDHILEHLPARLNEALLEACVEPTDLLTTLSNMLPVRLATAMMVPYTLPLESALSFTIRLLEWLPDVPEDIRWMKEQTGSICQYLVMRAKRKLGRHLPSRLPEQVELRRVQSLPSVPLSCAAYREALPGWMRNNLSLGDALAKWEECQRQLLLGLFCTNVAFPPEALRMRAPADPAPAPADPASPQHQLAGPAPLLSTPAPEARPVIGALGL
chain 2: METVQELIPLAKEMMAQKRKGKMVKLYVLGSVLALFGVVLGLMETVCSPFTAARRLRDQEAAVAELQAALERQALQKQALQEKGKQQDTVLGGRALSNRQHAS
B2: ATGL (PNPLA2, patatin-like phospholipase domain-containing protein 2), human, full length / CIDEC (FSP27), human (parent)
chain 1: B1 chain 1
chain 2: MEYAMKSLSLLYPKSLSRHVSVRTSVVTQQLLSEPSPKAPRARPCRVSTADRSVRKGIMAYSLEDLLLKVRDTLMLADKPFFLVLEEDGTTVETEEYFQALAGDTVFMVLQKGQKWQPPSEQGTRHPLSLSHKPAKKIDVARVTFDLYKLNPQDFIGCLNVKATFYDTYSLSYDLHCCGAKRIMKEAFRWALFSMQATGHVLLGTSCYLQQLLDATEEGQPPKGKASSLIPTCLKILQ

One assay covers variants of B1. In words: LUMIER: Protein A-ATGL variant and firefly luciferase-partner co-expressed in HEK293T, lysates immunoprecipitated on IgG-coated plates, co-precipitated partner measured as luciferase luminescence. Conditions: with G0S2 (G0/G1 switch protein 2), transient co-transfection, IgG-coated LUMITRAC plates, 2 h at 4 °C, three PBS washes, Bright-Glo luciferase reagent, triplicates per assay, two …, parent: 0.26, not graded, scale: log2 fold change of co-immunoprecipitated luminescence relative to wild-type ATGL within each experiment.
On to chain 1 A453E, for which the screen value was 0.72.

Consider chain 1 G16K, for which the screen value was -0.435.

Take chain 1 A104E: the screen value is -0.113.

As to chain 1 F348E, the screen value was -0.115.

chain 1 E368A: the screen value is -0.233.

In the case of chain 1 A434L, the screen value was found to be 0.461.

For the variant chain 1 F35A, the screen value is -0.163.

chain 1 F35E: the screen value is -0.0735.

Consider chain 1 G59L, for which the screen value was -2.12.

As to chain 1 K275A, the screen value is -0.535.

For the variant chain 1 G189E, the screen value is -2.28.

chain 1 L62K: the screen value was -1.38.

Take chain 1 L62A: the screen value was -1.67.

As to chain 1 G153K, the screen value was -1.68.

As for chain 1 G153A, the screen value is -1.31.

For chain 1 K92L, the screen value was determined as 0.251.

Consider chain 1 E314A, for which the screen value was found to be 0.00238.

Consider chain 1 I70A, for which the screen value was -1.03.

chain 1 I70K: the screen value was -1.77.

For the variant chain 1 G66L, the screen value was -0.176.

Turning to chain 1 G66A, the screen value turned out to be 0.751.

With chain 1 H109E, the screen value stood at 0.353.

chain 1 E125L: the screen value is -0.308.

Still in this assay, the particulars now being: with G0S2 (G0/G1 switch protein 2), transient co-transfection, IgG-coated LUMITRAC plates, 2 h at 4 °C, three PBS washes, Bright-Glo luciferase reagent, triplicates per assay, two …, parent: 0.56, not graded, scale: log2 fold change of co-immunoprecipitated luminescence relative to wild-type ATGL within each experiment.
Regarding chain 1 A453E, the screen value was -0.082.

As for chain 1 G16K, the screen value is -0.755.

In the case of chain 1 A104E, the screen value amounted to 0.0584.

Take chain 1 F348E: the screen value was -0.287.

Consider chain 1 E368A, for which the screen value is -0.215.

Turning to chain 1 A434L, the screen value was -0.0543.

For chain 1 F35A, the screen value was -0.133.

Consider chain 1 F35E, for which the screen value came out at 0.169.

On to chain 1 G59L, for which the screen value was -2.22.

Turning to chain 1 K275A, the screen value is -0.748.

With chain 1 G189E, the screen value was -2.66.

For the variant chain 1 L62K, the screen value is -1.99.

chain 1 L62A: the screen value is -2.25.

In the case of chain 1 G153K, the screen value was -2.61.

In the case of chain 1 G153A, the screen value was -1.25.

For the variant chain 1 K92L, the screen value is -0.642.

chain 1 E314A: the screen value is -0.218.

chain 1 I70A: the screen value was -1.14.

Turning to chain 1 I70K, the screen value is -2.22.

For chain 1 G66L, the screen value is -0.16.

In the case of chain 1 G66A, the screen value came out at 0.00762.

Take chain 1 H109E: the screen value worked out at 0.0835.

With chain 1 E125L, the screen value was -0.181.

Variants of B2 are the subject of another assay. The description is as above. Conditions: with CIDEC (FSP27), transient co-transfection, IgG-coated LUMITRAC plates, 2 h at 4 °C, three PBS washes, Bright-Glo luciferase reagent, triplicates per assay, two …, parent: 0.17, not graded, scale: log2 fold change of co-immunoprecipitated luminescence relative to wild-type ATGL within each experiment.
For chain 1 F35E, the screen value was determined as 0.312.

Consider chain 1 F35A, for which the screen value is 0.00149.

As to chain 1 E368A, the screen value is -0.223.

In the case of chain 1 P156K, the screen value is -0.723.

As for chain 1 V328A, the screen value came out at 0.302.

As for chain 1 N180L, the screen value was -0.529.

For the variant chain 1 F348E, the screen value is -0.409.

As for chain 1 P103K, the screen value is -0.241.

As for chain 1 I70A, the screen value was -0.118.

As for chain 1 I70K, the screen value is -0.434.

On to chain 1 L102K, for which the screen value was -0.128.

As for chain 1 K92L, the screen value is -0.0227.

Take chain 1 P86K: the screen value was determined as 0.081.

chain 1 R163K: the screen value worked out at 0.652.

As to chain 1 A104E, the screen value is -0.0649.

Regarding chain 1 Y415A, the screen value was -0.411.

Regarding chain 1 Q140K, the screen value was -0.161.

Take chain 1 Q140A: the screen value was determined as 0.722.

With chain 1 H109E, the screen value is -0.00157.

For chain 1 A434L, the screen value is -0.034.

On to chain 1 R351L, for which the screen value was -0.353.

As to chain 1 G66L, the screen value amounted to 0.197.

As to chain 1 G66A, the screen value was -0.0355.

With chain 1 R113K, the screen value was -0.11.

For the variant chain 1 R113L, the screen value was -0.719.

Regarding chain 1 N39E, the screen value came to 0.129.

As for chain 1 T41A, the screen value was 0.105.

Consider chain 1 L261E, for which the screen value was -0.713.

For chain 1 V127L, the screen value was -0.166.

Consider chain 1 G59L, for which the screen value was found to be 0.339.

For the variant chain 1 G153A, the screen value is -0.268.

With chain 1 G153K, the screen value was -0.57.

In the case of chain 1 L159A, the screen value was -0.648.

As to chain 1 G16K, the screen value came out at 0.534.

Staying with this assay, now noted: with CIDEC (FSP27), transient co-transfection, IgG-coated LUMITRAC plates, 2 h at 4 °C, three PBS washes, Bright-Glo luciferase reagent, triplicates per assay, two …, parent: 0.24, not graded, scale: log2 fold change of co-immunoprecipitated luminescence relative to wild-type ATGL within each experiment.
In the case of chain 1 F35E, the screen value was 0.00116.

In the case of chain 1 F35A, the screen value was -0.0902.

For the variant chain 1 E368A, the screen value was -0.54.

For chain 1 P156K, the screen value was -0.374.

Consider chain 1 V328A, for which the screen value was -0.193.

Take chain 1 N180L: the screen value was -0.574.

Consider chain 1 F348E, for which the screen value is -0.389.

chain 1 P103K: the screen value is -0.421.

chain 1 I70A: the screen value was -0.628.

Take chain 1 I70K: the screen value is -0.623.

Consider chain 1 L102K, for which the screen value was -0.319.

In the case of chain 1 K92L, the screen value turned out to be 0.785.

With chain 1 P86K, the screen value is -0.642.

With chain 1 R163K, the screen value stood at 0.0551.

Turning to chain 1 A104E, the screen value is -0.317.

chain 1 Y415A: the screen value is -0.266.

As for chain 1 Q140K, the screen value stood at 0.485.

Turning to chain 1 Q140A, the screen value worked out at 0.0209.

For the variant chain 1 H109E, the screen value was -0.00996.

chain 1 A434L: the screen value was 0.729.

chain 1 R351L: the screen value is -0.407.

As for chain 1 G66L, the screen value is -0.656.

chain 1 G66A: the screen value is -0.0837.

Regarding chain 1 R113K, the screen value came out at 0.829.

As for chain 1 R113L, the screen value was 0.537.

With chain 1 N39E, the screen value was -0.0276.

On to chain 1 T41A, for which the screen value was -0.176.

In the case of chain 1 L261E, the screen value was -0.796.

For chain 1 V127L, the screen value is -0.0792.

chain 1 G59L: the screen value was -0.00561.

Turning to chain 1 G153A, the screen value was determined as 0.00164.

On to chain 1 G153K, for which the screen value was -0.174.

As to chain 1 L159A, the screen value is 0.00161.

As for chain 1 G16K, the screen value came to 0.954.

For the origin of these results see PMC10958042.
